Holding throughout (assay type): functional, cell membranes
Series [1] deals with Multidrug resistance protein 1a (Rattus norvegicus) (UniProt Q6PSM0). The series is described as follows: (§1) TP_TRANSPORTER: uptake in rat canalicular membrane vesicle.
Series [2] relates to C=C[C@H]1CN2CC[C@H]1C[C@@H]2[C@@H](O)c1ccnc2ccc(OC)cc12. The description is as §1.
The test system of series [3] is C=CC1C[N+]2(CCCCC)CCC1CC2C(O)c1ccnc2ccc(OC)cc12. As to the kind of experiment: TP_TRANSPORTER: uptake in rat canalicular plasma membrane vesicles. Particulars: Canalicular plasma membrane vesicle.

For the molecule `CCC1C[N+]2(CCCC3(C)N=N3)C3CC45c6ccccc6N(C)C4C2CC1C3C5O` (stereo not drawn), the Activity result in series [1] was “substrate [+]”.

By Km is commonly meant the concentration of substrate that gives half-maximal velocity. For “Multidrug resistance protein 1a (Rattus norvegicus), Q6PSM0”, the Km is 5 µM in series [2] and 0.4 µM in series [3].

Source of the values: ChEMBL document CHEMBL2074526, “ATP-dependent transport of amphiphilic cations across the hepatocyte canalicular membrane mediated by mdr1 P-glycoprotein” (FEBS Lett, 1994).
